The values that follow come from JP2007300927A (dated 2007).

Experiment [1] has as its target T1, 可溶型GPC3コアタンパク質 (human, UniProt P51654 25-563).
T1 construct: also called 可溶型GPC3コア蛋白質; soluble GPC3 core protein; not shown: C-terminal His tag
In words: ELISA screening of hybridoma supernatant on immobilised soluble GPC3 core protein. A general note: An ELISA detects its analyte on a solid surface through an enzyme-linked reagent.

Experiment [2] has as its target T1, 可溶型GPC3コアタンパク質. In words: ELISA, purified antibody from 10 μg/mL in 3-fold steps on immobilised soluble GPC3 core protein.
The target in experiment [3] is T2, GC-1 (human, UniProt P51654 495-563).
T2 construct: Made in E. coli DH5α, purified on glutathione resin; also called GST融合タンパク質GC-1(Ser495からLys563); not shown: GST (glutathione S-transferase) of vector pGEX-4T-3 (Amersham), N-terminal to the GPC3 piece
T2 sequence: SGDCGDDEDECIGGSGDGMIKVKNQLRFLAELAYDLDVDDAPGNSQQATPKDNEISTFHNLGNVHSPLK
In words: Western blot of GST fusion proteins, reducing SDS-PAGE. In general terms: Immunoblotting shows a protein as a band on a membrane.

Experiment [4] has as its target T3, GC-2 (human, UniProt P51654 510-563).
T3 construct: also called GST融合タンパク質GC-2(Gly510からLys563); not shown: GST (glutathione S-transferase) of vector pGEX-4T-3 (Amersham), N-terminal to the GPC3 piece
T3 sequence: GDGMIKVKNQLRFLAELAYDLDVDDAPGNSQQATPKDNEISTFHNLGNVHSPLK
The description is as above.

The target in experiment [5] is T4, GC-3 (human, UniProt P51654 524-563).
T4 construct: also called GST融合タンパク質GC-3(Ala524からLys563); not shown: GST (glutathione S-transferase) of vector pGEX-4T-3 (Amersham), N-terminal to the GPC3 piece
T4 chain: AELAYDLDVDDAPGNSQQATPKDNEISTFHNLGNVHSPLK
Described as above.

For experiment [6], the target named is T1, 可溶型GPC3コアタンパク質. In words: ELISA on GPC3 (Fig. 15); reference antibody of the comparison.

B1: M5B9 (antibody, V domains shown)
VH: EVQLQQSGTVLARPGASVKMSCKASGYTFTGYWMHWVKQRPGQGLEWIGAIYPGNSDTNYNQKFKGKAKLTAVTSASTAYMELSSLTNEDAAVYHCTRSGDLTGGLAYWGQGTLVTVSA
VL: DIVMTQAAFSNPVTLGTSASISCRSSKSLLHSNGITYLYWFLQKPGQSPQLLIYQMSNLASGVPDRFSSSGSGTDFTLRISRVEAEDVGVYYCAQNLELPYTFGSGTKLEIK
notes: Mouse hybridoma antibody
Turning to B1, the binding result in experiment [1] is recorded as “binds”.

B2: M10D2 (antibody, V domains shown)
VH: QVQLQQPGAELVKPGASVKLSCKASGYTFTSYWMHWVKQRPGQGLEWIGEIDPSDSYTYYNQKFRGKATLTVDKSSNTAYMQLSSLTSEDSAVYYCSRSNLGDGHYRFPAFPYWGQGTLVTVSA
VL: DIVLTQSPATLSVTPGDRVSLSCRASHSISNFLHWYPQKSHESPRLLIKYASQSISGIPSRFSGNGSGTDFTLSINSVETEDFGMYFCQQSNIWSLTFGAGTKLELK
notes: Mouse hybridoma antibody
For B2, the binding result in experiment [1] was “binds”.

B3: M11F1 (antibody, V domains shown)
VH: QVTLKESGPGILQPSQTLSLTCSFSGFSLSIYGMGVGWIRQPSGKGLEWLANIWWNDDKYYNSALKSRLTISKDTSNNQVFLKISSVDTADTATYYCAQIGYFYFDYWGQGTTLTVSS
VL: DVVMTQTPLSLPVSLGDQASISCRSSQSLVHSNGNTYLHWYLQKPGQSPKLLIYKVSNRFSGVPDRFSGSGSGTDFTLKISRVEAEDLGVYFCSQSTHVPWTFGGGTKLEIK
notes: Mouse hybridoma antibody
On to B3, for which the binding result in experiment [2], in experiment [3], in experiment [4] and in experiment [5] was “binds” throughout.

B4: GC33マウス−ヒトキメラ抗体 (antibody, V domains shown)
VH: QVQLQQSGAELVRPGASVKLSCKASGYTFTDYEMHWVKQTPVHGLKWIGALDPKTGDTAYSQKFKGKATLTADKSSSTAYMELRSLTSEDSAVYYCTRFYSYTYWGQGTLVTVSA
VL: DVVMTQTPLSLPVSLGDQASISCRSSQSLVHSNGNTYLHWYLQKPGQSPKLLIYKVSNRFSGVPDRFSGSGSGTDFTLKISRVEAEDLGVYFCSQNTHVPPTFGSGTKLEIK
notes: Mouse GC33 variable regions on human IgG1 and human κ constant regions (vectors HEFgγ1, HEFgκ); also called キメラGC33抗体; マウスGC33可変領域の抗体(mouse / mouse)
With B4, the binding result in experiment [6] is listed as “binds”.
